# In publication PMC10031235 (Protein Science : A Publication of the Protein Society, 2023):
# Target: the molecule itself
# Assay: SEC; size-exclusion chromatography of purified PSAT in solution (Figure S7); conditions not shown
protein,measurement,value
"human phosphoserine aminotransferase (PSAT-β) (enzyme, pyridoxal 5'-phosphate covalently bound to Lys200 (internal aldimine); pyridoxamine phosphate in place of PLP in some chains, human phosphoserine aminotransferase, PSAT1 (PSAT-β), wild type, EC 2.6.1.52; gene coding for human PSAT-β cloned in a modified pET28b; electron density continuous from residue 6 to 370; also called PSAT1; human PSAT; source: E. coli BL21(DE3) tuner, purified (IMAC Talon; Superdex 75 before crystallization)) MDAPRQVVNFGPGPAKLPHSVLLEIQKELLDYKGVGISVLEMSHRSSDFAKIINNTENLVRELLAVPDNYKVIFLQGGGCGQFSAVPLNLIGLKAGRCADYVVTGAWSAKAAEEAKKFGTINIVHPKLGSYTKIPDPSTWNLNPDASYVYYCANETVHGVEFDFIPDVKGAVLVCDMSSNFLSKPVDVSKFGVIFAGAQKNVGSAGVTVVIVRDDLLGFALRECPSVLEYKVQAGNSSLYNTPPCFSIYVMGLVLEWIKNNGGAAAMEKLSSIKSQTIYEIIDNSQGFYVCPVEPQNRSKMNIPFRIGNAKGDDALEKRFLDKALELNMLSLKGHRSVGGIRASLYNAVTIEDVQKLAAFMKKFLEMHQL",stoichiometry N,2
